The values that follow come from the nanobody polyreactivity screen of Harvey et al. (2022).

The nature of the series: yeast display, Sf9 membrane polyspecificity reagent, FACS + sequencing; frameworks hold sequencing errors. In a few lines:
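Genes from sorted yeast were amplified by colony PCR, read by MiSeq 2 × 250 sequencing and filtered on CDR length. These cells carried a synthetic nanobody library in Saccharomyces cerevisiae BJ5465 and were sorted by FACS into low and high (top ~1%) gates on anti-HA and streptavidin fluorescence. Polyreactivity is labelled according to the gate of origin.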
As for “QVQLVESGGGLVQAGGSLRLSCAASGSTFYSYTMGWYRQAPGKERELVAAISRSAGSTYYADSVKGRFTISRDHAKNTVYLQMNSLKPEVTAVYYCAATLGRTYYSRWYGMDYWGQGTQVTVSS”, the “polyreactivity (PSR sort gate)” value is on record as “high polyreactivity”.
In the case of “QVQLVESGGGLVQAGGSLRLSCAASGSTFYTNAMGWYRPAPGKVRELVAAISSSGDSTYYADSVKGRFTISRDNAKNTVYLQMKSLKPDDTAVYYCNADLRSYNGFRYYYWGQGTKVTVSS”, the “polyreactivity (PSR sort gate)” value is given as “low polyreactivity”.
Next, “QVQLVESGGGLVQAGGSLRLSCAASGSTFYTNAMGWYRQAPGKDRELVAVITSRGGGTYYADSVKGRFTISRDYAKNTVYLQMNRLKPEDTSVYYCAAYPLVSWGRHGTKGDYWGQGTQVTVSS”: “low polyreactivity”.
For “QVQLVESGGGLVQAGGSLRLSCAASGSTFYTNAMGWYRQAPGKERELFAAIRQSGGTTHYADSVKGRFTISRDNAKNTVYLLMNSLKPEDTAVYYCAAVSGGYSRRYRYGYWGQGTQVTVSS”, the “polyreactivity (PSR sort gate)” value is recorded as “high polyreactivity”.
In the case of “QVQLVESGGGLVQAGGSLRLSCAASGSTFYTNAMGWYRQAPGKERELVAAITSSVGSTHYADSVKGRFTISRDNAKNTVYIQMNSLKPEDTAVYYCAATFGYGRYGYWGQGTQVTVSS”, the “polyreactivity (PSR sort gate)” value is “low polyreactivity”.
Next, “QVQLVESGGGLVQAGGSLRLSCAASGSTFYTNAMGWYRQAPGKERELVAASNYSGGSTYYADSVKGRFTISRDNAKNTVYLQMNSLKPEDTAVYYCATDLHWLVTKYGYWGQGTQVTVSS”: “low polyreactivity”; “QVQLVESGGGLVQAGGSLRLSCAASGSTFYTNAMGWYRQAPGKERELVAVITYRGGSTYYADSVKGRFTISRDNAKNTVYLQMNSLKPEDTAVYYCNARGTVPWYGYDYWGQGTQVTVSS”: “high polyreactivity”; “QVQLVESGGGLVQAGGSLRLSCAASGSTFYTNDMGWYRQAPGKERELVAAITSAGNTNYADSVKGSFTISRDNAKNTVYLQMNSLKPEDTAVYYYYYYQYDYWGQGTQVTVSS”: “low polyreactivity”.
Take “QVQLVESGGGLVQAGGSLRLSCAASGSTFYTYAMGWYRQAPGKERELVAAINRSGGTTYYADSVKGRFTISRDNAKNTVYLQMNSLNPEDTAVYYCARRRYGYDYWGQGTQVTVSS”: the “polyreactivity (PSR sort gate)” value is reported as “high polyreactivity”.
The result for “QVQLVESGGGLVQAGGSLRLSCAASGSTFYTYAMGWYRQAPGKERELVAAISNRGGSTRYADSVKGRFTISRDTAKNTVYLQMNSLKPEDTAVYYCAARVTQTGYYWGQGTQVTVSS” reads “high polyreactivity”.
Turning to “QVQLVESGGGLVQAGGSLRLSCAASGSTFYTYAMGWYRQAPGKERELVAAITRGGGRTYYADSVKGRFTISRDNAKNTVYLQMNSLKPEDTAVYYCAATVGYGHSYAGWYWVDYWGQGTQVTVSS”, the “polyreactivity (PSR sort gate)” value is “high polyreactivity”.
The result for “QVQLVESGGGLVQAGGSLRLSCAASGSTFYVNAMGWYRQAPGKERELVAAISWTDDSTYYADSVKGRFTISRDNAKNTVYLQMNSLKPEDTAVYYCAAEQYRYYEVEYWGQGTQVTVSS” reads “high polyreactivity”; that for “QVQLVESGGGLVQAGGSLRLSCAASGSTFYVNDMGWYRQAPGKERELVAAIDWTGGTTYYADSVKGRFTISRDNAKNTVYLQMNSLKPEDTAVYYCAVDDSTVDYDYWGQGTQVTVSS”, “low polyreactivity”.
As to “QVQLVESGGGLVQAGGSLRLSCAASGSTFYVYAMGWYRQAPGKERELVAAIDDSGDRTYYADSVKGRFTISRDNAKNTVYLQMNSLKPEDTAVYYCAAEYDSWEYDYWGQGTQVTVSS”, the “polyreactivity (PSR sort gate)” value is given as “low polyreactivity”.
Take “QVQLVESGGGLVQAGGSLRLSCAASGSTFYVYAMGWYRQAPGKERELVASITRGGGTYADSVKGRFTISRDNAKNTVYLQMNSQKPEDTAVYYCNARWQRSTGGRQRYDYWGQGTQVSVSS”: the “polyreactivity (PSR sort gate)” value was “high polyreactivity”.
“QVQLVESGGGLVQAGGSLRLSCAASGSTFYYNAMGWYRQAPGKEREFVAANSSRGGSTYYADSVKGRFTISRDNAKNTVYLQMNSLKPEDTAVYYCAADYYVWTPIGVRQYDYWGHGTQVTVSS”: the “polyreactivity (PSR sort gate)” value was “high polyreactivity”.
For the sequence “QVQLVESGGGLVQAGGSLRLSCAASGSTFYYNAMGWYRQAPGKERELVAAISKRGGTTSYADSVKGRFTISRDNAKNTVYLQMNSLKPEDTADYYCADQTYLRQYYRYYWGQGTQVTVSS”, the “polyreactivity (PSR sort gate)” value is “high polyreactivity”.
The result for “QVQLVESGGGLVQAGGSLRLSCAASGSTFYYNAMGWYRQAPGKERELVARISRAGASTYYAVAVKGRFTISRDNAKNTVYLPMNSLTPEDTAGYYCAARKKKYGYDNWGQATQVTVSS” reads “high polyreactivity”; that for “QVQLVESGGGLVQAGGSLRLSCAASGSTFYYNAMGWYRQAPGKERELVARISRSGGSTYADSVKGRFTISRDNAKNTVYLQMNSLKPEDTAVYYCNADAYGTPEFTSYAVRYDYWGQGTQVNVSS”, “low polyreactivity”; that for “QVQLVESGGGLVQAGGSLRLSCAASGSTFYYNAMGWYRQAPGKERELVAVITLNGGRTSYADSVKGRFTISRDNAKNTVYLQMNSLKPEDTAVYYCAADRYRGYGYWGQGTQVTVSS”, “low polyreactivity”.
Next, “QVQLVESGGGLVQAGGSLRLSCAASGSTFYYNAMGWYRQSPGKERELVARISRSGGSTYADSVKRRFTISRDNAKNTVYLQMNSLKPEDTAVYYCNAEAYGTPEFTSYAVRYDYWGQGTQVTVSS”: “low polyreactivity”; “QVQLVESGGGLVQAGGSLRLSCAASGSTFYYNGMGWYRQAPGKERELVARITRTGGSTYYADSVKGRFTISRDNAKNTVYLQMNSLKPEDTAVYYCNADYYSRTKRKYRYGYWGQGTQVTVSS”: “high polyreactivity”; “QVQLVESGGGLVQAGGSLRLSCAASGSTFYYYAMGWYRQAPGKERELVAAIRLIGGTTYYADSVKGRFTISRDNAKNTVYLQMNSLKPEDTAVYYCNARYSTGYTSPSYWGVYKHYDSWGQGTQVTVSS”: “low polyreactivity”.
The result for “QVQLVESGGGLVQAGGSLRLSCAASGSTFYYYAMGWYRQAPGKERELVAAISATGGSTYYADSVKGRFTISRDNAKNTVYLQMNSLKPEDTAVYYCAAYASRRLRTIRIFGNDYWGQGTQVTVSS” reads “high polyreactivity”.
For “QVQLVESGGGLVQAGGSLRLSCAASGSTFYYYAMGWYRQAPGKERELVASINKIVGITDYADSVKGRFTISRDNAKNTGYLQRNSLTPEDTAVYYCAAHGRINPDVPRTDFFASEEDYWGQGTQVTVSS”, the “polyreactivity (PSR sort gate)” value is recorded as “low polyreactivity”.
Next, “QVQLVESGGGLVQAGGSLRLSCAASGSTFYYYTMGWSRQAPGKERELVAAITYSGGSTRYADSVKGRFTISRDNAKNTVYLQMNSLKPEDTAVYYCAAELTEWTNGFDYWGQGTQVTVSS”: “high polyreactivity”; “QVQLVESGGGLVQAGGSLRLSCAASGSTFYYYTMGWYRQAPGKERELVAAITYSGGSTRYADSVKGRFTISRDNAKNTVYLQMNSLKPEDTAVYYCAAGYYWSSFAFRDMDYWGQGTQVTVSS”: “high polyreactivity”; “QVQLVESGGGLVQAGGSLRLSCAASGSTFYYYTMGWYRQAPGKERELVAVISRDGRTNYADSVKGRFTISRDNAKNTVYVQMNSLKPEDTAVYYCNADYYWNGVYHYDYWGQGTQVTVSS”: “low polyreactivity”.
Next, “QVQLVESGGGLVQAGGSLRLSCAASGSTFYYYVMGWYRQAPGKERELVAAISSGGHTNYADSVKGRFTISRDNAKNTVYLQMNSLKPEDTAVYYCAAKPWRGTLLRYGYWGQGTQVTVSS”: “high polyreactivity”; “QVQLVESGGGLVQAGGSLRLSCAASGSTIADNAMGWYRQAPGKERELVAAITRSGVRTYYADSVKGRFTISRDTAKNTVYLQMNSLKPEDTAVYYCAKRTYPSRIYDYWGQGTQVTVSS”: “high polyreactivity”.
